Assay results reported in PMC8100106, “Selection of a picomolar antibody that targets CXCR2-mediated neutrophil activation and alleviates EAE symptoms” (Nature Communications, 2021).

Assays:
[1] = molecular target: T1, pepN48, first 48 residues of the extracellular N-terminus of hCXCR2 (Homo sapiens, biotin on the N-terminus); assay: SPR; biotinylated pepN48 loaded on streptavidin chip (Series S Sensor Chip SA), antibody flowed over, Biacore T200, HBS-EP+ buffer pH 7.4; conditions: both partners purified
T1 construct: human CXC chemokine receptor 2 (CXCR2), first 48 residues; also called CXCR2 N-terminal peptide; source: synthetic peptide (Chinese Peptide)
T1 chain: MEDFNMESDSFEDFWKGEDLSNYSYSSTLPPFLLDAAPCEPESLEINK

[2] = molecular target: T2, macaque CXCR2 (mcCXCR2-mCherry) on U2OS cells (Macaca mulatta (macaque species not …, UniProt A0A5F7ZQV3)); assay: flow cytometry on cells; U2OS cells transiently overexpressing receptor-mCherry; 2 μg mL^−1 antibody in FACS buffer (0.5% BSA in PBS pH 7.4, 2 mM EDTA), 4 °C, 15 min; Alexa Fluor 488 anti-human IgG; conditions: one partner purified
T2 construct: macaque CXCR2; also called macaque monkey CXCR2; source: U2OS, transiently overexpressed, on cells

[3] = molecular target: T3, pepN48, peptide of the first 48 residues of the extracellular N-terminus of hCXCR2 (Homo sapiens, biotin labeled on its N-terminus); assay: SPR; biotinylated pepN48 loaded on a streptavidin Series S Sensor Chip SA; antibody flowed; Biacore T200; HBS-EP+ buffer pH 7.4; conditions: both partners purified
T3 construct: human CXC chemokine receptor 2 (CXCR2), first 48 residues; a blank before the last K in the print was removed; also called CXCR2 N-terminal peptide; source: synthetic peptide (Chinese Peptide, Hangzhou)
T3 chain: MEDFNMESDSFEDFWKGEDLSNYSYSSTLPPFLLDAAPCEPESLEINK

[4] = molecular target: T4, human CXCR2 (hCXCR2)-mCherry fusion protein on U2OS cells (human, UniProt P25025); assay: cell-based or functional assay
[5] = molecular target: T4, human CXCR2 (hCXCR2)-mCherry fusion …; assay: flow cytometry on cells; cellular supernatants with scFv-Fc on U2OS cells with membrane-bound hCXCR2-mCherry; conditions: partners not purified
[6] = molecular target: T4, human CXCR2 (hCXCR2)-mCherry fusion …; assay: immunostaining of cells or tissue; U2OS cells overexpressing receptor-mCherry, fixed with 4% paraformaldehyde; 2 μg mL^−1 antibody at 4 °C overnight; Alexa Fluor 488 anti-human IgG; confocal microscopy; conditions: one partner purified
[7] = molecular target: T5, pepN9-19, 9-19 amino acid peptide of hCXCR2 (human); assay: crystal structure; Fab mixed with pepN9-19 at a molar ratio of 1:3; hanging drop vapor diffusion, 18 °C; conditions: both partners purified
T5 construct: human CXCR2 residues 9-19; source: synthetic peptide (Sangon Biotech) for crystallography
T5 chain: DSFEDFWKGED

T2 sequence (Q28519 whole entry): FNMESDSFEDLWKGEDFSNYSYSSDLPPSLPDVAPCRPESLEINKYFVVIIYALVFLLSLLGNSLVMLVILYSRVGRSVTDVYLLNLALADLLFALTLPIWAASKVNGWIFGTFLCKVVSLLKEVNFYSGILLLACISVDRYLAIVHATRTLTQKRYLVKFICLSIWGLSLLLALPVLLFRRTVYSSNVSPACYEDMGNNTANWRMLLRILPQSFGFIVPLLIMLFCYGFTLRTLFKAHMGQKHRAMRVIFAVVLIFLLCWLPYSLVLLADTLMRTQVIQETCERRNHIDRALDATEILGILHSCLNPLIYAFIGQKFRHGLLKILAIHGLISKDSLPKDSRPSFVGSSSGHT

B1: abN48-IgG1 (antibody, V domains shown)
VH: QVQLVQSGAEVKKPGSSVKVSCKASGGTLSSYAISWVRQAPGQGPEWMGWINPNSGGTNYAQKFQGRVTMTRDTSISTAYMELSRLRPDDTAVYYCASGYCSSTSCYDYWGQGTLVTVSS
VL: QAVLTQPSSLSASPGASVSLTCTLRSGINVGAYRIYWYQQKPGSPPQFLLRYKSDSDKQQGSGVPSRFSGSRDASANAGILLISGLRSEDEADYYCAIWHSSAWVFGGGTQLTVL
notes: VH of abN48 (from the scFv H8); complete constant domains of the IgG1 heavy chain; VL of abN48 on a complete light chain constant domain (lambda type is said of abN48-2-IgG1); IgG1; made from the scFv abN48 (H8); source: HEK293F, co-transfected heavy and light chain plasmids, purified (Protein A)
koff [1]: 0.00035 s⁻¹
kon [1]: 350000 M⁻¹ s⁻¹

B2: abN48-2-IgG1 (antibody, V domains shown)
VH: QVQLVQSGAEVKKPGSSVKVSCKASGGTLSSYAISWVRQAPGQGPEWMGWINPNSGGTNYAQKFQGRVTMTRDTSISTAYMELSRLRPDDTAVYYCASGYCSRTRCYDYWGQGTLVTVSS
VL: QAVLTQPSSLSASPGASVSLTCTLRSGINVGAYRIYWYQQKPGSPPQFLLRYKSDSDKQQGSGVPSRFSGSRDASANAGILLISGLRSEDEADYYCAIWHSSAWVFGGGTQLTVL
notes: VH of abN48-2; equals the VH of m2 (PDB 6KVF) with Ser99 to Arg99 and Ser100A to Arg100A in H-CDR3 (Kabat numbering); complete constant domains of human IgG1 heavy chain; whole lambda light chain; as the light chain of m2; Full-length IgG1, lambda type; also called ab48-2-IgG1; AbN4-2-IgG1; source: HEK293T (results) or HEK293F (methods), transfected, purified (HiTrap Protein A)
binding result [2]: binds
Kd [3]: 0.0072 nM
partial agonist effect on Ca^2+ influx at high concentration (10–1000 nM), FLIPR, apparent EC50 [4]: 310 nM

B3: H8 (abN48) scFv antibody (scFv, V domains shown)
VH: QVQLVQSGAEVKKPGSSVKVSCKASGGTLSSYAISWVRQAPGQGPEWMGWINPNSGGTNYAQKFQGRVTMTRDTSISTAYMELSRLRPDDTAVYYCASGYCSSTSCYDYWGQGTLVTVSS
VL: QAVLTQPSSLSASPGASVSLTCTLRSGINVGAYRIYWYQQKPGSPPQFLLRYKSDSDKQQGSGVPSRFSGSRDASANAGILLISGLRSEDEADYYCAIWHSSAWVFGGGTQLTVL
notes: VH and VL as in the abN48 Fab of PDB 6KVF; Expressed as scFv-Fc with the entire Fc domain of human IgG1 (pFuse, InvivoGen pfuse-hg1fc2); also called scFv-Fc; source: HEK293F, transfected (pFuse vector); in cellular supernatant, and purified (HiTrap Protein A)
binding result [5]: binds
Kd [3]: 2.6 nM

B4: abN48-IgG1 (antibody, V domains shown)
VH: QVQLVQSGAEVKKPGSSVKVSCKASGGTLSSYAISWVRQAPGQGPEWMGWINPNSGGTNYAQKFQGRVTMTRDTSISTAYMELSRLRPDDTAVYYCASGYCSSTSCYDYWGQGTLVTVSS
VL: QAVLTQPSSLSASPGASVSLTCTLRSGINVGAYRIYWYQQKPGSPPQFLLRYKSDSDKQQGSGVPSRFSGSRDASANAGILLISGLRSEDEADYYCAIWHSSAWVFGGGTQLTVL
notes: VH of abN48; complete constant domains of human IgG1 heavy chain; whole light chain of abN48 (VL and CL); Full-length IgG1; source: HEK293F, co-transfected heavy and light chain plasmids, purified (HiTrap Protein A)
binding result [6]: binds
binding result [2]: binds
Kd [3]: 0.78 nM

B5: abN48-2-IgG1 (antibody, V domains shown)
VH: QVQLVQSGAEVKKPGSSVKVSCKASGGTLSSYAISWVRQAPGQGPEWMGWINPNSGGTNYAQKFQGRVTMTRDTSISTAYMELSRLRPDDTAVYYCASGYCSRTRCYDYWGQGTLVTVSS
VL: QAVLTQPSSLSASPGASVSLTCTLRSGINVGAYRIYWYQQKPGSPPQFLLRYKSDSDKQQGSGVPSRFSGSRDASANAGILLISGLRSEDEADYYCAIWHSSAWVFGGGTQLTVL
notes: VH as the heavy chain of Dm1 with two changes in H-CDR3 (Kabat numbering); complete constant domains of the IgG1 heavy chain; as the light chain of Dm1 (lambda type); IgG1, lambda; also called H8-2
koff [1]: 1.7e-05 s⁻¹
kon [1]: 940000 M⁻¹ s⁻¹

B6: abN48-2 Fab (Fab, V domains shown)
VH: QVQLVQSGAEVKKPGSSVKVSCKASGGTLSSYAISWVRQAPGQGPEWMGWINPNSGGTNYAQKFQGRVTMTRDTSISTAYMELSRLRPDDTAVYYCASGYCSRTRCYDYWGQGTLVTVSS
VL: QAVLTQPSSLSASPGASVSLTCTLRSGINVGAYRIYWYQQKPGSPPQFLLRYKSDSDKQQGSGVPSRFSGSRDASANAGILLISGLRSEDEADYYCAIWHSSAWVFGGGTQLTVL
notes: Fab heavy chain of abN48-2; VH equals that of m2 (PDB 6KVF) with Ser99 to Arg99 and Ser100A to Arg100A (Kabat numbering); lambda light chain; as the light chain of m3; source: papain cleavage of abN48-2-IgG1, purified (HiTrap lambda HP, Superdex200 increase)
binding result [7]: binds

B7: abN48 Fab (Fab, V domains shown)
VH: QVQLVQSGAEVKKPGSSVKVSCKASGGTLSSYAISWVRQAPGQGPEWMGWINPNSGGTNYAQKFQGRVTMTRDTSISTAYMELSRLRPDDTAVYYCASGYCSSTSCYDYWGQGTLVTVSS
VL: QAVLTQPSSLSASPGASVSLTCTLRSGINVGAYRIYWYQQKPGSPPQFLLRYKSDSDKQQGSGVPSRFSGSRDASANAGILLISGLRSEDEADYYCAIWHSSAWVFGGGTQLTVL
notes: Fab heavy chain of abN48; light chain of abN48; as the light chain of m2; source: Fab made following a similar protocol as for abN48-2 Fab (papain cleavage of the IgG1, purified)
binding result [7]: binds
